The supplement of paper PMC5998384

How the values were obtained:
HeLa Kyoto [1] = experiment: solubility in G1/S (NP-40 vs SDS abundance) (log2 ratio); higher = more soluble; conditions: cell cycle stage: G1/S
HeLa Kyoto [2] = experiment: solubility change mitosis vs G1/S (difference of NP-40 vs SDS log2 ratios) (log2 ratio difference); higher = more soluble in mitosis
HeLa Kyoto [3] = experiment: thermal stability score vs G1/S (z-score of summed log2 fold changes over temperatures); higher = more thermally stable than in G1/S
[4] = cell cycle stage: early G1 (4.5 h after nocodazole release)
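Wherever solubility change mitosis vs G1/S (difference of NP-40 vs SDS log2 ratios) is given: synchronized HeLa Kyoto cells (double thymidine block for G1/S, nocodazole release for mitosis), protein amounts in NP-40 versus SDS lysates quantified by mass spectrometry, three biological replicates.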
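Wherever solubility in G1/S (NP-40 vs SDS abundance) is given: HeLa Kyoto cells arrested at G1/S by double thymidine block, proteins quantified by TMT10plex mass spectrometry in mild NP-40 versus SDS extracts, three biological replicates.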
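Wherever thermal stability score vs G1/S (z-score of summed log2 fold changes over temperatures) is given: synchronized HeLa Kyoto cells, proteins quantified by TMT10plex mass spectrometry, three biological replicates, mitosis taken 0.5 h after nocodazole release, G1/S directly after double thymidine block.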

| Substance | solubility in G1/S (log2) (HeLa Kyoto [1]) | solubility change mitosis (log2) (HeLa Kyoto [2]) | thermal stability score (HeLa Kyoto [3]; [4]) | thermal stability score (HeLa Kyoto [3]; cell cycle stage: mitosis) |
| --- | --- | --- | --- | --- |
| MAADVVGDVYVLVEHPFEYTGKDGRRVAIRPNERYRLLRRSTEHWWHVRREPGGRPFYLPAQYVRELPALGNPAAAAPPGPHPSPAAPEPLAYDYRFVSAAATAGPDGAPEESGGRASSLCGPAQRGAATQRSSLAPGLPACLYLRPAAPVRPAQSLNDLACAAVSPPAGLLGSSGSFKACSVAGSWVCPRPLARSDSENVYEVIQDLHVPPPEESAEQVDDPPEPVYANIERQPRATSPGAAAAPLPSPVWETHTDAGTGRPYYYNPDTGVTTWESPFEAAEGAASPATSPASVDSHVSLETEWGQYWDEESRRVFFYNPLTGETAWEDEAENEPEEELEMQPGLSPGSPGDPRPPTPETDYPESLTSYPEEDYSPVGSFGEPGPTSPLTTPPGWSCHVSQDKQMLYTNHFTQEQWVRLEDPHGKPYFYNPEDSSVRWELPQVPVPAPRSIHKSSQDGDTPAQASPPEEKVPAELDEVGSWEEVSPATAAVRTKTLDKAGVLHRTKTADKGKRLRKKHWSASWTVLEGGVLTFFKDSKTSAAGGLRQPSKFSTPEYTVELRGATLSWAPKDKSSRKNVLELRSRDGSEYLIQHDSEAIISTWHKAIAQGIQELSAELPPEESESSRVDFGSSERLGSWQEKEEDARPNAAAPALGPVGLESDLSKVRHKLRKFLQRRPTLQSLREKGYIKDQVFGCALAALCERERSRVPRFVQQCIRAVEARGLDIDGLYRISGNLATIQKLRYKVDHDERLDLDDGRWEDVHVITGALKLFFRELPEPLFPFSHFRQFIAAIKLQDQARRSRCVRDLVRSLPAPNHDTLRMLFQHLCRVIEHGEQNRMSVQSVAIVFGPTLLRPEVEETSMPMTMVFQNQVVELILQQCADIFPPH [ARHGAP27] | 0.0968 | -0.164 | 2.18 | 0.927 |
| MECPVMETGSLFTSGIKRHLKDKRISKTTKLNVSLASKIKTKILNNSSIFKISLKHNNRALAQALSREKENSRRITTEKMLLQKEVEKLNFENTFLRLKLNNLNKKLIDIEALMNNNLITAIEMSSLSEFHQSSFLLSASKKKRISKQCKLMRLPFARVPLTSNDDEDEDKEKMQCDNNIKSKTLPDIPSSGSTTQPLSTQDNSEVLFLKENNQNVYGLDDSEHISSIVDVPPRESHSHSDQSSKTSLMSEMRNAQSIGRRWEKPSPSNVTERKKRGSSWESNNLSADTPCATVLDKQHISSPELNCNNEINGHTNETNTEMQRNKQDLPGLSSESAREPNAECMNQIEDNDDFQLQKTVYDADMDLTASEVSKIVTVSTGIKKKSNKKTNEHGMKTFRKVKDSSSEKKRERSKRQFKNSSDVDIGEKIENRTERSDVLDGKRGAEDPGFIFNNEQLAQMNEQLAQVNELKKMTLQTGFEQGDRENVLCNKKEKRITNEQEETYSLSQSSGKFHQESKFDKGQNSLTCNKSKASRQTFVIHKLEKDNLLPNQKDKVTIYENLDVTNEFHTANLSTKDNGNLCDYGTHNILDLKKYVTDIQPSEQNESNINKLRKKVNRKTEIISGMNHMYEDNDKDVVHGLKKGNFFFKTQEDKEPISENIEVSKELQIPALSTRDNENQCDYRTQNVLGLQKQITNMYPVQQNESKVNKKLRQKVNRKTEIISEVNHLDNDKSIEYTVKSHSLFLTQKDKEIIPGNLEDPSEFETPALSTKDSGNLYDSEIQNVLGVKHGHDMQPACQNDSKIGKKPRLNVCQKSEIIPETNQIYENDNKGVHDLEKDNFFSLTPKDKETISENLQVTNEFQTVDLLIKDNGNLCDYDTQNILELKKYVTDRKSAEQNESKINKLRNKVNWKTEIISEMNQIYEDNDKDAHVQESYTKDLDFKVNKSKQKLECQDIINKHYMEVNSNEKESCDQILDSYKVVKKRKKESSCKAKNILTKAKNKLASQLTESSQTSISLESDLKHITSEADSDPGNPVELCKTQKQSTTTLNKKDLPFVEEIKEGECQVKKVNKMTSKSKKRKTSIDPSPESHEVMERILDSVQGKSTVSEQADKENNLENEKMVKNKPDFYTKAFRSLSEIHSPNIQDSSFDSVREGLVPLSVSSGKNVIIKENFALECSPAFQVSDDEHEKMNKMKFKVNRRTQKSGIGDRPLQDLSNTSFVSNNTAESENKSEDLSSERTSRRRRCTPFYFKEPSLRDKMRR [SGOL2] | -0.383 | 0.191 | 0.746 | 2.18 |
| MATLVELPDSVLLEIFSYLPVRDRIRISRVCHRWKRLVDDRWLWRHVDLTLYTMRPKVMWHLLRRYMASRLHSLRMGGYLFSGSQAPQLSPALLRALGQKCPNLKRLCLHVADLSMVPITSLPSTLRTLELHSCEISMAWLHKQQDPTVLPLLECIVLDRVPAFRDEHLQGLTRFRALRSLVLGGTYRVTETGLDAGLQELSYLQRLEVLGCTLSADSTLLAISRHLRDVRKIRLTVRGLSAPGLAVLEGMPALESLCLQGPLVTPEMPSPTEILSSCLTMPKLRVLELQGLGWEGQEAEKILCKGLPHCMVIVRACPKESMDWWM [FBXL12] | -0.129 | -0.183 | -0.861 | -0.543 |
| MAKREDSPGPEVQPMDKQFLVCSICLDRYQCPKVLPCLHTFCERCLQNYIPAQSLTLSCPVCRQTSILPEQGVSALQNNFFISSLMEAMQQAPDGAHDPEDPHPLSVVAGRPLSCPNHEGKTMEFYCEACETAMCGECRAGEHREHGTVLLRDVVEQHKAALQRQLEAVRGRLPQLSAAIALVGGISQQLQERKAEALAQISAAFEDLEQALQQRKQALVSDLETICGAKQKVLQSQLDTLRQGQEHIGSSCSFAEQALRLGSAPEVLLVRKHMRERLAALAAQAFPERPHENAQLELVLEVDGLRRSVLNLGALLTTSATAHETVATGEGLRQALVGQPASLTVTTKDKDGRLVRTGSAELRAEITGPDGTRLPVPVVDHKNGTYELVYTARTEGELLLSVLLYGQPVRGSPFRVRALRPGDLPPSPDDVKRRVKSPGGPGSHVRQKAVRRPSSMYSTGGKRKDNPIEDELVFRVGSRGREKGEFTNLQGVSAASSGRIVVADSNNQCIQVFSNEGQFKFRFGVRGRSPGQLQRPTGVAVDTNGDIIVADYDNRWVSIFSPEGKFKTKIGAGRLMGPKGVAVDRNGHIIVVDNKSCCVFTFQPNGKLVGRFGGRGATDRHFAGPHFVAVNNKNEIVVTDFHNHSVKVYSADGEFLFKFGSHGEGNGQFNAPTGVAVDSNGNIIVADWGNSRIQVFDSSGSFLSYINTSAEPLYGPQGLALTSDGHVVVADAGNHCFKAYRYLQ [TRIM3] | -0.0387 | -0.138 | 0.13 | 0.0555 |
| MPV17L2 | -0.0909 | -0.154 | -0.139 | -0.811 |
